# Reference: US20170209564A1
# B1: CR6261 (antibody, V domains shown)
# VH: EVQLVESGAEVKKPGSSVKVSCKASGGPFRSYAISWVRQAPGQGPEWMGGIIPIFGTTKYAPKFQGRVTITADDFAGTVYMELSSLRSEDTAMYYCAKHMGYQVRETMDVWGKGTTVTVSS
# VL: QSVLTQPPSVSAAPGQKVTISCSGSSSNIGNDYVSWYQQLPGTAPKLLIYDNNKRPSGIPDRFSGSKSGTSATLGITGLQTGDEANYYCATWDRRPTAYVVFGGGTKLTVLG
# Key:
# Settings in all cases: remark: other sources report otherwise
# 6E12 = experiment: ELISA, coated CR6261, HEK293F medium
# 181H9 = experiment: ELISA, coated CR6261, HEK293F medium
# 91C4 = experiment: ELISA, coated CR6261, HEK293F medium
# 71H2 = experiment: ELISA, coated CR6261, HEK293F medium
# 7A7 = experiment: ELISA, coated CR6261, HEK293F medium
# 74H9 = experiment: ELISA, coated CR6261, HEK293F medium
# 220C9 = experiment: ELISA, coated CR6261, HEK293F medium
# 113E7 = experiment: ELISA, coated CR6261, HEK293F medium
# 131B5 = experiment: ELISA, coated CR6261, HEK293F medium
# 71C4 = experiment: ELISA, coated CR6261, HEK293F medium
# 171E5 = experiment: ELISA, coated CR6261, HEK293F medium
# 86B4 = experiment: ELISA, coated CR6261, HEK293F medium
# 127H1 = experiment: ELISA, coated CR6261, HEK293F medium
# 115A1 = experiment: ELISA, coated CR6261, HEK293F medium
# [1] = molecular target: T1, H1-mini2-cluster1+5+6-GCN4 without leader sequence and with FLAG-thrombin-foldon-HIS; experiment: ELISA signal over HTRF expression signal, P. pastoris; average of the parental
# [2] = molecular target: T1, H1-mini2-cluster1+5+6-GCN4 without …; experiment: ELISA signal over HTRF expression signal, HEK293F; average of the parental
# s74H9 = experiment: apparent Kd (Kd^app), purified polypeptide; method not stated
# [3] = molecular target: T1, H1-mini2-cluster1+5+6-GCN4 without …; experiment: ELISA signal over HTRF expression signal, P. pastoris; the reference itself
# [4] = molecular target: T1, H1-mini2-cluster1+5+6-GCN4 without …; experiment: ELISA signal over HTRF expression signal, HEK293F; the reference itself
binder,measurement,setting,value
B1,CR6261 binding signal,6E12,1.53e+07
same,CR6261 binding signal,181H9,1.19e+07
same,CR6261 binding signal,91C4,8.44e+06
same,CR6261 binding signal,71H2,2.11e+07
same,CR6261 binding signal,7A7,6.19e+06
same,CR6261 binding signal,74H9,2.61e+07
same,CR6261 binding signal,220C9,8.49e+06
same,CR6261 binding signal,113E7,1.3e+07
same,CR6261 binding signal,131B5,5.73e+06
same,CR6261 binding signal,71C4,6.41e+06
same,CR6261 binding signal,171E5,6.63e+06
same,CR6261 binding signal,86B4,2e+07
same,CR6261 binding signal,127H1,2.42e+07
same,CR6261 binding signal,115A1,9.56e+06
same,ratio (binding signal/HTRF signal),[1],5.94
same,ratio (binding signal/HTRF signal),[2],17.4
same,Kd,s74H9,130 nM
same,fold increase of ratio over parental SEQ ID NO: 6,[3],1
same,fold increase of ratio over parental SEQ ID NO: 6,[4],1
